Reference: article PMC10942467 (bioRxiv, 2024)

Target: 6X His-Raf1 (purified recombinant) (UniProt P04049 1-648, fluorescent label in the MST (kind and site not stated))
Experiment: MST

Kd: 183 nM
B1: GLS (purified recombinant) (enzyme)
chain: HPWWGGGGWPAEPLARGLSSSPSEILQELGKGSTHPQPGVSPPAAPAAPGPKDGPGETDAFGNSEGKELVASGENKIKQGLLPSLEDLLFYTIAEGQEKIPVHKFITALKSTGLRTSDPRLKECMDMLRLTLQTTSDGVMLDKDLFKKCVQSNIVLLTQAFRRKFVIPDFMSFTSHIDELYESAKKQSGGKVADYIPQLAKFSPDLWGVSVCTVDGQRHSTGDTKVPFCLQSCVKPLKYAIAVNDLGTEYVHRYVGKEPSGLRFNKLFLNEDDKPHNPMVNAGAIVVTSLIKQGVNNAEKFDYVMQFLNKMAGNEYVGFSNATFQSERESGDRNFAIGYYLKEKKCFPEGTDMVGILDFYFQLCSIEVTCESASVMAATLANGGFCPITGERVLSPEAVRNTLSLMHSCGMYDFSGQFAFHVGLPAKSGVAGGILLVVPNVMGMMCWSPPLDKMGNSVKGIHFCHDLVSLCNFHNYDNLRHFAKKLDPRREGGDQRVKSVINLLFAAYTGDVSALRRFALSAMDMEQRDYDSRTALHVAAAEGHVEVVKFLLEACKVNPFPKDRWNNTPMDEALHFGHHDVFKILQEYQVQYTPQGDSDNGKENQTVHKNLDGLL
